The source of these data is article PMC4329186.

The target of this series is human alpha-thrombin (human, UniProt P00734;P00734 328-363;364-622). As to the kind of experiment: ctITP-NECEEM capillary electrophoresis; no metal ions; 400 nM thrombin; Tris-HCl sample buffer, no added metal ions, 30 min incubation; Tris and glycine reagents for CE; pH and temperature not given in the material.

B1: 29mer thrombin aptamer with Ion Torrent primer handles and spacer (97 nt) (structured_DNA)
DNA: CCTCTCTATGGGCAGTCGGTGATAGTCCGTGGTAGGGCAGGTTGGGGTGACTTAAGGAGTTCAATATCTGAGTCGGAGACACGCAGGGATGAGATGG
Consider B1, for which the binding result is reported as “binds”.
